This assay deals with T1, polyhistidine (His)-tagged recombinant full-length CCN2 (UniProt P29279 27-349).
T1 sequence (looked up): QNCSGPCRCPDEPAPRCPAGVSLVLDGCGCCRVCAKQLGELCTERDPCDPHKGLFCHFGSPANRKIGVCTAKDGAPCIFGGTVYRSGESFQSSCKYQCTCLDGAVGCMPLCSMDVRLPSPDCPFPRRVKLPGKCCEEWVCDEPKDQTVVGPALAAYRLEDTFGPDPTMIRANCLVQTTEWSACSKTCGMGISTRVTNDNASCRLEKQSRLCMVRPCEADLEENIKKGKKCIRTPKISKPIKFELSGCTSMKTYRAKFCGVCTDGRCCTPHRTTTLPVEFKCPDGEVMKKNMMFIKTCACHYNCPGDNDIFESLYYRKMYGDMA
The assay can be described thus: SPR. A general note: In SPR one partner is held on a chip, and binding of the other changes the refractive index at the surface.

Experimental findings from paper PMC2760593 (Journal of biochemistry, 2008) are described below.

B1: recombinant bone morphogenetic protein (BMP)-2 (ligand, UniProt P12643 283-396, looked up)
chain: QAKHKQRKRLKSSCKRHPLYVDFSDVGWNDWIVAPPGYHAFYCHGECPFPLADHLNSTNHAIVQTLVNSVNSKIPKACCVPTELSAISMLYLDENEKVVLKNYQDMVVEGCGCR
As a reminder, the Kd is a measure of binding affinity in units of concentration. Take B1: the dissociation constant (Kd) was found to be 0.77 nM.
